From the supplement of paper PMC6757056
± gives the standard deviation of the averaged measurements.

B1: library; a variant is named by its letters at N, in order (parent)
chain: GCUGUCACCGAGAAACUGUGAAGUAUAUCUUAAACCUGGGCACUUAAAAGAUAUAUGGAGUUAGUAGUGCAACCUGCUCGGUCUGAUGAGUCCNNNNNNGGACGAAACAGC

Experiments:
[1] = variants of: B1; test: normalized RNA/DNA level without ligand (relative to sTRSVctl = 100) (log10 (% of sTRSVctl)); HEK293T; ligand: cyclic di-GMP (c-di-GMP-II aptamer); higher = less ribozyme self-cleavage, higher mRNA level; conditions: reporter: mCherry (pCS4076), ligand present: no
In short: (§1)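 HEK293T cells received ligand, where used, 1 h before being transfected with 4 µg per 6-well well of library plasmids encoding reporter-linked ribozyme switches. After 72 h, RNA was extracted with EDTA and sequenced. RNA level was derived from RNA reads per DNA read, normalized to a spiked-in non-cleaving sequence or the top sequences, then scaled and log-transformed. Values were ×100 then log10, the top set was 25 sequences, and the minimum was 100 DNA reads.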

[2] = variants of: B1; test: normalized RNA/DNA level with ligand (relative to sTRSVctl = 100) (log10 (% of sTRSVctl)); HEK293T; ligand: cyclic di-GMP (c-di-GMP-II aptamer); ligand concentration (+) RNA-Seq: 1 mM; higher = less ribozyme self-cleavage, higher mRNA level; conditions: reporter: mCherry (pCS4076), ligand present: yes
In short: as §1

[3] = variants of: B1; test: FACS-Seq fitted mean relative fluorescence mCherry/BFP without ligand (log10 relative fluorescence); HEK293T; ligand: cyclic di-GMP (c-di-GMP-II aptamer); higher = higher reporter protein expression; conditions: ligand present: no
In short: (§2)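 An mCherry reporter containing the ribozyme switch and an EF1α-BFP marker were introduced by lentivirus into HEK293T libraries. Cells were enriched, incubated 48 h with or without ligand, sorted into 6 bins by mCherry/BFP, and bin genomic DNA was PCR-amplified, barcoded and sequenced on MiSeq. Fluorescence represents the normalized fitted normal mean of the bin counts. Fitting was done on log10(mCherry/BFP), scaling to five spiked-in control ribozymes.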

[4] = variants of: B1; test: FACS-Seq fitted mean relative fluorescence mCherry/BFP with ligand (log10 relative fluorescence); HEK293T; ligand: cyclic di-GMP (c-di-GMP-II aptamer); ligand concentration (+) FACS-Seq: 1 mM; higher = higher reporter protein expression; conditions: ligand present: yes
In short: as §2

| Variant | normalized RNA/DNA level without ligand (log10) [1] | normalized RNA/DNA level with ligand (log10) [2] | FACS-Seq fitted mean (log10) [3] | FACS-Seq fitted mean (log10) [4] |
| --- | --- | --- | --- | --- |
| CCUCAC | 1.698 ± 0.0058 | 1.85 ± 0.1 | – | – |
| CAAAUU | 1.45 ± 0.12 | 1.67 ± 0.076 | -0.59 ± 0.046 | -0.349 ± 0.046 |
| GCGUGU | 1.5 ± 0.085 | 1.75 ± 0.083 | -0.15 ± 0.054 | 0.114 ± 0.056 |
| AUUAAU | 1.674 ± 0.015 | 1.8 ± 0.12 | – | – |
| CGGCCG | 1.81 ± 0.035 | 1.87 ± 0.11 | – | – |
| UGUCCU | 1.7541 ± 0.0017 | 1.89 ± 0.1 | -0.0961 ± 0.059 | 0.158 ± 0.027 |
| CGAAUA | 1.24 ± 0.091 | 1.45 ± 0.086 | -0.507 ± 0.0079 | -0.209 ± 0.083 |
| AUAGCA | 1.71 ± 0.043 | 1.81 ± 0.15 | – | – |
| UAAGUU | 1.577 ± 0.0025 | 1.77 ± 0.094 | 0.0182 ± 0.011 | 0.229 ± 0.08 |
| CGUGAA | 1.24 ± 0.057 | 1.35 ± 0.099 | -0.546 ± 0.02 | -0.396 ± 0.0075 |
| UUUGUU | 1.73 ± 0.063 | 1.86 ± 0.13 | -0.123 ± 0.13 | 0.125 ± 0.064 |
| AAGGGU | 1.53 ± 0.091 | 1.7 ± 0.061 | -0.547 ± 0.0094 | -0.278 ± 0.052 |
| AAGGGA | 1.38 ± 0.072 | 1.5 ± 0.13 | -0.6377 ± 0.005 | -0.444 ± 0.023 |
| GUCACC | 1.708 ± 0.011 | 1.85 ± 0.055 | – | – |
| UUAGCA | 1.72 ± 0.052 | 1.83 ± 0.12 | – | – |
| AGACAA | 1.47 ± 0.057 | 1.65 ± 0.1 | -0.193 ± 0.061 | 0.171 ± 0.019 |
| CUGCCG | 1.78 ± 0.011 | 1.92 ± 0.064 | – | – |
| CUGCCA | 1.613 ± 0.0037 | 1.76 ± 0.18 | – | – |
| ACUACU | 1.68 ± 0.041 | 1.82 ± 0.14 | – | – |
| AUACCC | 1.75 ± 0.043 | 1.89 ± 0.086 | – | – |
| GCGUAC | 1.34 ± 0.086 | 1.52 ± 0.12 | – | – |
| AAUAAU | 1.63 ± 0.051 | 1.8 ± 0.077 | – | – |
| CUGGUG | 1.39 ± 0.017 | 1.58 ± 0.16 | – | – |
| CUGGCC | 1.8041 ± 0.00089 | 1.87 ± 0.096 | – | – |

| Variant | normalized RNA/DNA level without ligand (log10) [1] | normalized RNA/DNA level with ligand (log10) [2] | FACS-Seq fitted mean (log10) [3] | FACS-Seq fitted mean (log10) [4] |
| --- | --- | --- | --- | --- |
| AAUACG | 1.6 ± 0.058 | 1.78 ± 0.06 | -0.6 ± 0.066 | -0.2 ± 0.094 |
| GCGCAA | 1.57 ± 0.044 | 1.72 ± 0.13 | – | – |
| GUAGCU | 1.74 ± 0.065 | 1.83 ± 0.1 | – | – |
| UGAUGU | 1.63 ± 0.052 | 1.84 ± 0.089 | -0.179 ± 0.057 | 0.187 ± 0.058 |
| GAGGCG | 1.817 ± 0.018 | 1.9 ± 0.14 | – | – |
| CUCGUU | 1.762 ± 0.005 | 1.86 ± 0.1 | – | – |
| CAAUAA | 1.25 ± 0.083 | 1.52 ± 0.074 | -0.688 ± 0.028 | -0.398 ± 0.011 |
| UCCGGC | 1.79 ± 0.062 | 1.95 ± 0.12 | – | – |
| UGAAGG | 1.661 ± 0.00062 | 1.84 ± 0.08 | – | – |
| ACUCGA | 1.52 ± 0.065 | 1.73 ± 0.11 | – | – |
| CGCGGG | 1.67 ± 0.1 | 1.87 ± 0.047 | – | – |
| AGAUGU | 1.56 ± 0.036 | 1.77 ± 0.054 | – | – |
| ACGAGU | 1.43 ± 0.14 | 1.7 ± 0.11 | -0.508 ± 0.033 | -0.229 ± 0.13 |
| AGCAAA | 1.48 ± 0.042 | 1.64 ± 0.14 | -0.531 ± 0.032 | -0.277 ± 0.1 |
| CGCACG | 1.75 ± 0.038 | 1.85 ± 0.08 | – | – |
| UCAAAC | 1.63 ± 0.026 | 1.8 ± 0.079 | – | – |
| UGUGCC | 1.85 ± 0.074 | 1.94 ± 0.14 | – | – |
| CAGAGU | 1.652 ± 0.0071 | 1.86 ± 0.11 | – | – |
| UUCAAC | 1.695 ± 0.004 | 1.82 ± 0.12 | -0.163 ± 0.071 | 0.153 ± 0.024 |
| UUCAAA | 1.611 ± 0.0055 | 1.79 ± 0.057 | – | – |
| UUCAAU | 1.71 ± 0.03 | 1.82 ± 0.14 | -0.187 ± 0.012 | 0.267 ± 0.037 |
| GAAAUC | 1.659 ± 0.012 | 1.81 ± 0.11 | – | – |
| UACGUG | 1.69 ± 0.031 | 1.85 ± 0.12 | -0.864 ± 0.019 | -0.635 ± 0.083 |
